Data taken from the supplement of paper PMC9112550, “Optimization of the antimicrobial peptide Bac7 by deep mutational scanning” (BMC Biology, 2022).

System: Escherichia coli TOP10
Assay: shrunken log2 fold change of peptide-encoding DNA abundance (4.5 h post-induction vs induction); higher = less antimicrobial activity (less host growth inhibition)
Details: time post-induction: 4.5 h; library: site-saturation at positions 5, 18, 19, 20
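Note: peptides expressed intracellularly from a pBAD plasmid library in pooled LB shake-flask culture, induced with 0.3% L-arabinose, DNA abundance read by NGS, three biological replicates, DESeq2 with apeglm shrinkage.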

Row | Sequence | shrunken log2 fold change
1 | RRIRVRPPRLPRPRPRPVPGPRP | 0.0985
2 | RRIRVRPPRLPRPRPRPVSCPRP | 0.182
3 | RRIRVRPPRLPRPRPRPVTCPRP | -0.155
4 | RRIRVRPPRLPRPRPRPVTSPRP | -0.558
5 | RRIRVRPPRLPRPRPRPVVWPRP | 0.385
6 | RRIRVRPPRLPRPRPRPVWAPRP | 0.394
7 | RRIRVRPPRLPRPRPRPVWLPRP | 0.276
8 | RRIRVRPPRLPRPRPRPVYCPRP | -0.482
9 | RRIRVRPPRLPRPRPRPVYQPRP | -0.243
10 | RRIRVRPPRLPRPRPRPWAAPRP | 0.049
11 | RRIRVRPPRLPRPRPRPWAPPRP | 0.0631
12 | RRIRVRPPRLPRPRPRPWCQPRP | -0.187
13 | RRIRVRPPRLPRPRPRPWCWPRP | -0.0537
14 | RRIRVRPPRLPRPRPRPWDHPRP | -0.103
15 | RRIRVRPPRLPRPRPRPWDPPRP | -0.301
16 | RRIRVRPPRLPRPRPRPWDQPRP | -0.00149
17 | RRIRVRPPRLPRPRPRPWEFPRP | -0.102
18 | RRIRVRPPRLPRPRPRPWFQPRP | -0.139
19 | RRIRVRPPRLPRPRPRPWGRPRP | 0.0354
20 | RRIRVRPPRLPRPRPRPWHWPRP | -0.0605
21 | RRIRVRPPRLPRPRPRPWMAPRP | -0.338
22 | RRIRVRPPRLPRPRPRPWMCPRP | -0.522
23 | RRIRVRPPRLPRPRPRPWMEPRP | -0.124
24 | RRIRVRPPRLPRPRPRPWNPPRP | -0.0803
25 | RRIRVRPPRLPRPRPRPWPMPRP | 0.0297

Row | Sequence | shrunken log2 fold change
26 | RRIRVRPPRLPRPRPRPWPTPRP | 0.266
27 | RRIRVRPPRLPRPRPRPWRQPRP | 0.2
28 | RRIRVRPPRLPRPRPRPWTEPRP | -0.0547
29 | RRIRVRPPRLPRPRPRPWTRPRP | -0.0486
30 | RRIRVRPPRLPRPRPRPWVAPRP | -0.00183
31 | RRIRVRPPRLPRPRPRPWVHPRP | -0.306
32 | RRIRVRPPRLPRPRPRPWWFPRP | -0.307
33 | RRIRVRPPRLPRPRPRPWWWPRP | 0.0767
34 | RRIRVRPPRLPRPRPRPWYNPRP | -0.153
35 | RRIRVRPPRLPRPRPRPYAYPRP | 0.0587
36 | RRIRVRPPRLPRPRPRPYCPPRP | -0.462
37 | RRIRVRPPRLPRPRPRPYCSPRP | -0.0744
38 | RRIRVRPPRLPRPRPRPYCYPRP | -0.745
39 | RRIRVRPPRLPRPRPRPYEQPRP | -0.285
40 | RRIRVRPPRLPRPRPRPYEVPRP | 0.0284
41 | RRIRVRPPRLPRPRPRPYFAPRP | -0.246
42 | RRIRVRPPRLPRPRPRPYFKPRP | -0.49
43 | RRIRVRPPRLPRPRPRPYGKPRP | -0.289
44 | RRIRVRPPRLPRPRPRPYIHPRP | -0.757
45 | RRIRVRPPRLPRPRPRPYMWPRP | -0.48
46 | RRIRVRPPRLPRPRPRPYNGPRP | -0.514
47 | RRIRVRPPRLPRPRPRPYPGPRP | -0.183
48 | RRIRVRPPRLPRPRPRPYPNPRP | 0.0262
49 | RRIRVRPPRLPRPRPRPYQHPRP | -0.301
50 | RRIRVRPPRLPRPRPRPYRNPRP | -0.0374

Row | Sequence | shrunken log2 fold change
51 | RRIRVRPPRLPRPRPRPYSFPRP | -0.594
52 | RRIRVRPPRLPRPRPRPYTQPRP | -0.171
53 | RRIRVRPPRLPRPRPRPYWCPRP | -0.409
54 | RRIRVRPPRLPRPRPRPYWIPRP | -0.163
55 | RRIRVRPPRLPRPRPRPYYCPRP | -0.513
56 | RRIRWRPPRLPRPRPRPAASPRP | 0.404
57 | RRIRWRPPRLPRPRPRPACEPRP | 0.11
58 | RRIRWRPPRLPRPRPRPACGPRP | 0.508
59 | RRIRWRPPRLPRPRPRPADNPRP | 0.212
60 | RRIRWRPPRLPRPRPRPADWPRP | 0.345
61 | RRIRWRPPRLPRPRPRPAEGPRP | 0.000853
62 | RRIRWRPPRLPRPRPRPAGIPRP | 0.186
63 | RRIRWRPPRLPRPRPRPAGMPRP | 0.321
64 | RRIRWRPPRLPRPRPRPAGYPRP | 0.278
65 | RRIRWRPPRLPRPRPRPAINPRP | 0.185
66 | RRIRWRPPRLPRPRPRPAIWPRP | 0.596
67 | RRIRWRPPRLPRPRPRPAKCPRP | -0.0704
68 | RRIRWRPPRLPRPRPRPAKNPRP | 0.263
69 | RRIRWRPPRLPRPRPRPALPPRP | 0.374
70 | RRIRWRPPRLPRPRPRPALQPRP | 0.367
71 | RRIRWRPPRLPRPRPRPAMDPRP | 0.109
72 | RRIRWRPPRLPRPRPRPAMPPRP | 0.446
73 | RRIRWRPPRLPRPRPRPAMRPRP | 1.1
74 | RRIRWRPPRLPRPRPRPAPSPRP | 0.393
75 | RRIRWRPPRLPRPRPRPAQKPRP | 0.157

Row | Sequence | shrunken log2 fold change
76 | RRIRWRPPRLPRPRPRPAQRPRP | 0.418
77 | RRIRWRPPRLPRPRPRPASNPRP | -0.0347
78 | RRIRWRPPRLPRPRPRPATRPRP | 0.38
79 | RRIRWRPPRLPRPRPRPAVCPRP | 0.803
80 | RRIRWRPPRLPRPRPRPAYAPRP | 0.531
81 | RRIRWRPPRLPRPRPRPAYDPRP | 0.126
82 | RRIRWRPPRLPRPRPRPCACPRP | 0.0874
83 | RRIRWRPPRLPRPRPRPCAYPRP | -0.129
84 | RRIRWRPPRLPRPRPRPCCVPRP | -0.134
85 | RRIRWRPPRLPRPRPRPCDFPRP | 0.123
86 | RRIRWRPPRLPRPRPRPCDNPRP | 0.0838
87 | RRIRWRPPRLPRPRPRPCEDPRP | 0.115
88 | RRIRWRPPRLPRPRPRPCEGPRP | 0.00476
89 | RRIRWRPPRLPRPRPRPCENPRP | 0.285
90 | RRIRWRPPRLPRPRPRPCFPPRP | -0.164
91 | RRIRWRPPRLPRPRPRPCFQPRP | -0.222
92 | RRIRWRPPRLPRPRPRPCHHPRP | -0.723
93 | RRIRWRPPRLPRPRPRPCICPRP | 0.16
94 | RRIRWRPPRLPRPRPRPCLEPRP | 0.012
95 | RRIRWRPPRLPRPRPRPCLIPRP | -0.151
96 | RRIRWRPPRLPRPRPRPCLLPRP | -0.188
97 | RRIRWRPPRLPRPRPRPCNQPRP | -0.78
98 | RRIRWRPPRLPRPRPRPCNWPRP | 0.136
99 | RRIRWRPPRLPRPRPRPCQKPRP | -0.00776
100 | RRIRWRPPRLPRPRPRPCQSPRP | -0.098

Row | Sequence | shrunken log2 fold change
101 | RRIRWRPPRLPRPRPRPCVLPRP | -0.0369
102 | RRIRWRPPRLPRPRPRPCVVPRP | 0.0549
103 | RRIRWRPPRLPRPRPRPCWSPRP | -0.106
104 | RRIRWRPPRLPRPRPRPDDEPRP | 0.606
105 | RRIRWRPPRLPRPRPRPDDHPRP | 0.0959
106 | RRIRWRPPRLPRPRPRPDDSPRP | -0.183
107 | RRIRWRPPRLPRPRPRPDFFPRP | 0.204
108 | RRIRWRPPRLPRPRPRPDGQPRP | -0.000921
109 | RRIRWRPPRLPRPRPRPDHFPRP | -0.0288
110 | RRIRWRPPRLPRPRPRPDHPPRP | -0.0785
111 | RRIRWRPPRLPRPRPRPDIGPRP | -0.0157
112 | RRIRWRPPRLPRPRPRPDIIPRP | 0.0562
113 | RRIRWRPPRLPRPRPRPDKQPRP | 0.0432
114 | RRIRWRPPRLPRPRPRPDLSPRP | 0.000407
115 | RRIRWRPPRLPRPRPRPDLTPRP | 0.251
116 | RRIRWRPPRLPRPRPRPDNCPRP | -0.015
117 | RRIRWRPPRLPRPRPRPDNLPRP | -0.188
118 | RRIRWRPPRLPRPRPRPDNPPRP | 0.208
119 | RRIRWRPPRLPRPRPRPDQHPRP | -0.00431
120 | RRIRWRPPRLPRPRPRPDRRPRP | -0.0279
121 | RRIRWRPPRLPRPRPRPDTDPRP | 0.225
122 | RRIRWRPPRLPRPRPRPDWAPRP | -0.107
123 | RRIRWRPPRLPRPRPRPDYDPRP | -0.246
124 | RRIRWRPPRLPRPRPRPDYPPRP | -0.169
125 | RRIRWRPPRLPRPRPRPDYQPRP | -0.101

Row | Sequence | shrunken log2 fold change
126 | RRIRWRPPRLPRPRPRPECRPRP | 0.88
127 | RRIRWRPPRLPRPRPRPEDLPRP | -0.0249
128 | RRIRWRPPRLPRPRPRPEDMPRP | 0.282
129 | RRIRWRPPRLPRPRPRPEDTPRP | -0.0372
130 | RRIRWRPPRLPRPRPRPEEFPRP | 0.023
131 | RRIRWRPPRLPRPRPRPEELPRP | -0.00088
132 | RRIRWRPPRLPRPRPRPEGTPRP | 0.103
133 | RRIRWRPPRLPRPRPRPEHIPRP | -0.14
134 | RRIRWRPPRLPRPRPRPENFPRP | 0.00343
135 | RRIRWRPPRLPRPRPRPENIPRP | -0.148
136 | RRIRWRPPRLPRPRPRPEQAPRP | -0.0201
137 | RRIRWRPPRLPRPRPRPERGPRP | 0.683
138 | RRIRWRPPRLPRPRPRPERMPRP | 0.0689
139 | RRIRWRPPRLPRPRPRPESAPRP | 1.15
140 | RRIRWRPPRLPRPRPRPESWPRP | 1.05
141 | RRIRWRPPRLPRPRPRPETVPRP | -0.0769
142 | RRIRWRPPRLPRPRPRPEWCPRP | 0.386
143 | RRIRWRPPRLPRPRPRPEWYPRP | 0.0654
144 | RRIRWRPPRLPRPRPRPEYLPRP | -0.0854
145 | RRIRWRPPRLPRPRPRPEYRPRP | 0.0624
146 | RRIRWRPPRLPRPRPRPFACPRP | 0.00273
147 | RRIRWRPPRLPRPRPRPFAFPRP | -0.195
148 | RRIRWRPPRLPRPRPRPFCFPRP | 0.449
149 | RRIRWRPPRLPRPRPRPFCMPRP | -0.218
150 | RRIRWRPPRLPRPRPRPFCNPRP | -0.24
